In PMC7040017:

Target: 11-A-12 recombinant fibronectin fragment, containing the EDA domain

Substance: F8 single-chain variable Fragment (scFv) linked to a single unit of murine GITRL (from UniProt Q7TS55 46-170)
- fold reduction of the EC50 of NF-κB reporter activity of the CTLL-2 reporter cell line in the presence of EDA (coated 11-A-12 fibronectin) against no EDA: 5 fold
